From patent US20240261333A1, “NOVEL TARGETS FOR ENHANCING ANTI-TUMOR IMMUNITY” (THE BROAD INSTITUTE, INC., priority 2021, published 2024) come the findings set out here.

The target of one assay is STAU1 (human) (UniProt O95793). The assay is described as follows: IgG control IP from lysate of N-FLAG B3GNT2 cells, mass spectrometry.
In a further assay the target is PGAM5 (human) (UniProt Q96HS1). The assay is described as above.
For a further assay, the target named is PSMB4 (human) (UniProt P28070). Described as above.
A further assay has as its target ATAD3A (human) (UniProt Q9NVI7). The description is as above.
The next assay deals with SLC25A22 (human) (UniProt Q9H936). Described as above.
The next assay concerns the target HDGFL2 (human) (UniProt Q7Z4V5). Described as above.
For a further assay, the target named is RCN1 (human) (UniProt Q15293). The assay is described as above.
A further assay concerns the target PSMB6 (human) (UniProt P28072). Described as above.
The next assay has as its target RARS (human) (UniProt P54136). The assay is described as follows: co-IP with control IgG, mass spectrometry; lysate of cells with N-FLAG B3GNT2.
Another assay concerns the target CD70 (human) (UniProt P32970). The assay is described as above.
For another assay, the target named is NPM1 (human) (UniProt P06748). Described as above.
The next assay deals with HSPD1 (human) (UniProt P10809). The description is as above.
A further assay addresses ZC3HAV1 (human) (UniProt Q7Z2W4). The description is as above.
A further assay addresses CTHRC1 (human) (UniProt Q96CG8). Described as above.
In the next assay the target is GALNT2 (human) (UniProt Q10471). The description is as above.
In the next assay the target is PJA2 (human) (UniProt O43164). The assay is described as above.
Another assay has as its target SLC27A4 (human) (UniProt Q6P1M0). The description is as above.
In the next assay the target is RPL26 (human) (UniProt P61254). Described as above.
Another assay addresses PSMD4 (human) (UniProt P55036). The description is as above.
The next assay deals with GAPDH (human) (UniProt P04406). The description is as above.
The target in another assay is HADHA (human) (UniProt P40939). The description is as above.
The next assay addresses RPS4X (human) (UniProt P62701). The assay is described as above.
The target in the next assay is RPL32 (human) (UniProt P62910). The description is as above.
Another assay deals with GANAB (human) (UniProt Q14697). The assay is described as above.
In another assay the target is MARS (human) (UniProt P56192). The assay is described as above.
The target in another assay is SDF4 (human) (UniProt Q9BRK5). The description is as above.
For a further assay, the target named is RPL9 (human) (UniProt P32969). The description is as above.
Another assay addresses DNAJB11 (human) (UniProt Q9UBS4). Described as above.
In a further assay the target is SPRR1A (human) (UniProt P35321). Described as above.
The target of the next assay is MAGT1 (human) (UniProt Q9H0U3). The assay is described as above.
The target in the next assay is RRP12 (human) (UniProt Q5JTH9). The assay is described as above.
A further assay deals with CCT2 (human) (UniProt P78371). The assay is described as above.
The target of another assay is TOR1AIP2 (human) (UniProt Q8NFQ8). The description is as above.
Another assay concerns the target UGGT1 (human) (UniProt Q9NYU2). The description is as above.
In a further assay the target is CCT7 (human) (UniProt Q99832). The description is as above.
The next assay addresses PIGR (human) (UniProt P01833). The description is as above.
Another assay addresses CASC3 (human) (UniProt O15234). Nature of the assay: co-IP with mouse anti-FLAG from lysate of cells overexpressing N-FLAG B3GNT2, then mass spectrometry.

PIGR (human), sequence (P01833 19-764 limits assumed): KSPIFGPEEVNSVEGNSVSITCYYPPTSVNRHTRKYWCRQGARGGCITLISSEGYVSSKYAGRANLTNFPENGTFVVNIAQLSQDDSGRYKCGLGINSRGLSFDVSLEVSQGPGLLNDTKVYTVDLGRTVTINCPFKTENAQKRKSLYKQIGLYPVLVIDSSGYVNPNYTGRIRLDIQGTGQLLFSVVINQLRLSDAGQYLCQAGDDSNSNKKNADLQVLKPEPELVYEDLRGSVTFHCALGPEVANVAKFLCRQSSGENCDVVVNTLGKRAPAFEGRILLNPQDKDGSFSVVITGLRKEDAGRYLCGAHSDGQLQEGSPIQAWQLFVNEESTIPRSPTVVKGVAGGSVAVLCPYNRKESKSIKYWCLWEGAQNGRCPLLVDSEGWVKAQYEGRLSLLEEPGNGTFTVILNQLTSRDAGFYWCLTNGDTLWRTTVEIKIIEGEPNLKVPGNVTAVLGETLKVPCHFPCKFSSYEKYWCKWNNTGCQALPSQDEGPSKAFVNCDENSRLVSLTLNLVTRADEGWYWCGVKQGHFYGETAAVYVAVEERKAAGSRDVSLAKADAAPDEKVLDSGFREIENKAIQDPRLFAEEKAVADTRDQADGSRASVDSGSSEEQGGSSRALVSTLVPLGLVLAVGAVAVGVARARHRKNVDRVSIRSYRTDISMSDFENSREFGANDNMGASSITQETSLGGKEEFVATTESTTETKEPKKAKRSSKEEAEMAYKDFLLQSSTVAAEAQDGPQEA
CCT2 (human), sequence (P78371 48-535 limits assumed): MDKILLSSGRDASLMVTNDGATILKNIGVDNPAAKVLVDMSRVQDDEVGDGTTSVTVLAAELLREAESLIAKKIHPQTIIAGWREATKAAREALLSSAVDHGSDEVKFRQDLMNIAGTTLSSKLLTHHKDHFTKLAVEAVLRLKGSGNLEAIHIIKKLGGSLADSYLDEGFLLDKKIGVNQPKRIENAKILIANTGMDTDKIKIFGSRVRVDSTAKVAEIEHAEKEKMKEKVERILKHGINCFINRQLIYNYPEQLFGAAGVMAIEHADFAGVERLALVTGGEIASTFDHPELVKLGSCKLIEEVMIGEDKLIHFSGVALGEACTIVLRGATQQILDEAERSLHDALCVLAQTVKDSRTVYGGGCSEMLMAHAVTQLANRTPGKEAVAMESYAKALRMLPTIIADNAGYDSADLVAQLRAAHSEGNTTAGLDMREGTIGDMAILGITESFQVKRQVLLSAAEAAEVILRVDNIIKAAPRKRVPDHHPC
HDGFL2 (human), sequence (Q7Z4V5 whole entry): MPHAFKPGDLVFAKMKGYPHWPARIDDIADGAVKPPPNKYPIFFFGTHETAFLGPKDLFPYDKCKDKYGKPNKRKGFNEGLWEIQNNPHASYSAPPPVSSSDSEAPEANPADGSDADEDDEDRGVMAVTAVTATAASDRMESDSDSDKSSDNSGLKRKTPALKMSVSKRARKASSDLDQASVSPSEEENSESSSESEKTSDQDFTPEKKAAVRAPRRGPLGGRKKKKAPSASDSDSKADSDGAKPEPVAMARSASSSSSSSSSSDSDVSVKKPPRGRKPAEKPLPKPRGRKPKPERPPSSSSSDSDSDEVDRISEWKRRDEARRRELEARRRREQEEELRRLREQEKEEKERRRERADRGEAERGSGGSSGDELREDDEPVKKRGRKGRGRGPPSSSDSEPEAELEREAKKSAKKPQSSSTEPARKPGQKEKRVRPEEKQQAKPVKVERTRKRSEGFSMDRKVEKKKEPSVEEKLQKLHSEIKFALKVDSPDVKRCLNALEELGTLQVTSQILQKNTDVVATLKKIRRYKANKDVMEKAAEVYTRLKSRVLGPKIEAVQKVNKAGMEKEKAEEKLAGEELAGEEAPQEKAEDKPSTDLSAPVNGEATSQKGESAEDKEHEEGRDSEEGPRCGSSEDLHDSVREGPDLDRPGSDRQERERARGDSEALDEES
CASC3 (human), sequence (O15234 whole entry): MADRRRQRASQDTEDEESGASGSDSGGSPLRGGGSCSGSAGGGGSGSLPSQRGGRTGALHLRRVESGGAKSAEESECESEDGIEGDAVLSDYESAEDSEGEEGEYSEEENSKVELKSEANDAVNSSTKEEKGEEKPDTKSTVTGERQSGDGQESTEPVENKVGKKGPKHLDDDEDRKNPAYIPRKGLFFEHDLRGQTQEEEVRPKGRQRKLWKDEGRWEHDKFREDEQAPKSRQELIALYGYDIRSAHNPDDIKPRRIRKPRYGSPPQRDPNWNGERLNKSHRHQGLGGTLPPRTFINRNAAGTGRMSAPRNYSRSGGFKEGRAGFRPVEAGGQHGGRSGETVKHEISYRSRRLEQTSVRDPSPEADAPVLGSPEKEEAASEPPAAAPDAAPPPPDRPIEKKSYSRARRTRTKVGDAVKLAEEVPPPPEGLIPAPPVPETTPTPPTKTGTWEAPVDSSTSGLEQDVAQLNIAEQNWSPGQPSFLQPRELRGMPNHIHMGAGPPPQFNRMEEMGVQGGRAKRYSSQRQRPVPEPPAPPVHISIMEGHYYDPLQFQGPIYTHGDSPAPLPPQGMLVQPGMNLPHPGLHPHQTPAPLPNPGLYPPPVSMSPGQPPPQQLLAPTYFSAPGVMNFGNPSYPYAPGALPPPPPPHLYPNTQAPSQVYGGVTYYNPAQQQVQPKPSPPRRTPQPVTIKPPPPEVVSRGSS
PSMB4 (human), sequence (P28070 46-264 limits assumed): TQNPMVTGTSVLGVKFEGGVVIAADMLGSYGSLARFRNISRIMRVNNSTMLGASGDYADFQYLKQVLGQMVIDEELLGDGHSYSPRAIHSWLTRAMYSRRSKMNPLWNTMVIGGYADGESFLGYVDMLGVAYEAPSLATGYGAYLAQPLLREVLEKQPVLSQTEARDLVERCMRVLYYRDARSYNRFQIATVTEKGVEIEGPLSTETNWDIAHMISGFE
GALNT2 (human), sequence (Q10471 whole entry): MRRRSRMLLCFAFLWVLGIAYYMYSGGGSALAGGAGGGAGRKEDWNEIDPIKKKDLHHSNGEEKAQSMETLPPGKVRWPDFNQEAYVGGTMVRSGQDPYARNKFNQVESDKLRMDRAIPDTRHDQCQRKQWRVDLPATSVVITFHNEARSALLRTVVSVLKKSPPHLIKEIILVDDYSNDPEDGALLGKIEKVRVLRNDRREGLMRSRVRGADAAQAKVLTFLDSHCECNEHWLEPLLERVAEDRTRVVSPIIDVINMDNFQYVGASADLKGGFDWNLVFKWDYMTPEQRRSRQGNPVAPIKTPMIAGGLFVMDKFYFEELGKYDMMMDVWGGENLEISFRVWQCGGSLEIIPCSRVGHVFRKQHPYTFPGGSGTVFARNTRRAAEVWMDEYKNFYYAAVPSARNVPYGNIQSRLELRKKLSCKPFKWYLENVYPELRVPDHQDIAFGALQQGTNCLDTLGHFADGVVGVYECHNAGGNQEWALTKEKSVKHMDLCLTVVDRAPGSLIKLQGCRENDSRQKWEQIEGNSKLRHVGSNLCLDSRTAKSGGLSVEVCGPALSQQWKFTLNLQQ
STAU1 (human), sequence (O95793 other isoform, or with tags, fused parts or gaps limits assumed): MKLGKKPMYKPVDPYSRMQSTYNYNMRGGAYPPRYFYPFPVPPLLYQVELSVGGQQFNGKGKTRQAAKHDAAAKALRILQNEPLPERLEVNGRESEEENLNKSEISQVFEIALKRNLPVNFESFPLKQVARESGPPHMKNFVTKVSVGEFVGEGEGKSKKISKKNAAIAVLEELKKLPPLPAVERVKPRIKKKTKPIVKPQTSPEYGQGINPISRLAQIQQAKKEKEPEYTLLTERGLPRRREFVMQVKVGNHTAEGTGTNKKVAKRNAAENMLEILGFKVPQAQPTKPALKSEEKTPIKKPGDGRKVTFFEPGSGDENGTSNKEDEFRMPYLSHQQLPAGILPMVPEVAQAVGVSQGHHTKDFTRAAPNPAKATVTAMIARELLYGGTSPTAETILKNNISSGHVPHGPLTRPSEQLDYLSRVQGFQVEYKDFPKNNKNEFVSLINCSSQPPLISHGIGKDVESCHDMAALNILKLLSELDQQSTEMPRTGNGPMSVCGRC
CTHRC1 (human), sequence (Q96CG8 other isoform, or with tags, fused parts or gaps limits assumed): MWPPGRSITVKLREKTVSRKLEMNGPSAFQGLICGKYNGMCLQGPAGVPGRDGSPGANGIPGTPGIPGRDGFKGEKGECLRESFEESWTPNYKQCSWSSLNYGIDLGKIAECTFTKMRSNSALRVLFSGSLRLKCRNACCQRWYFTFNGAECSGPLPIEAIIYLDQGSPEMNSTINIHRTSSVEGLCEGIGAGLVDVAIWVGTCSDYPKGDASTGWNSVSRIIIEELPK
NPM1 (human), sequence (P06748 whole entry): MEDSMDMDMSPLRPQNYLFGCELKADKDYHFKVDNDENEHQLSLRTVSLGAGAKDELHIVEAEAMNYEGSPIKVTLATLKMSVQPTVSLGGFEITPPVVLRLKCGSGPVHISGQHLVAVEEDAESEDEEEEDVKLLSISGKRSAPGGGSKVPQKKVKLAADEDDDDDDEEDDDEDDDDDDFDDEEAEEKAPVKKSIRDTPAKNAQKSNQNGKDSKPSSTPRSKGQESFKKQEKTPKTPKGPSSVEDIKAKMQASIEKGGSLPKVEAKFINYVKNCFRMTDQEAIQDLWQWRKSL
CCT7 (human), sequence (Q99832 45-543 limits assumed): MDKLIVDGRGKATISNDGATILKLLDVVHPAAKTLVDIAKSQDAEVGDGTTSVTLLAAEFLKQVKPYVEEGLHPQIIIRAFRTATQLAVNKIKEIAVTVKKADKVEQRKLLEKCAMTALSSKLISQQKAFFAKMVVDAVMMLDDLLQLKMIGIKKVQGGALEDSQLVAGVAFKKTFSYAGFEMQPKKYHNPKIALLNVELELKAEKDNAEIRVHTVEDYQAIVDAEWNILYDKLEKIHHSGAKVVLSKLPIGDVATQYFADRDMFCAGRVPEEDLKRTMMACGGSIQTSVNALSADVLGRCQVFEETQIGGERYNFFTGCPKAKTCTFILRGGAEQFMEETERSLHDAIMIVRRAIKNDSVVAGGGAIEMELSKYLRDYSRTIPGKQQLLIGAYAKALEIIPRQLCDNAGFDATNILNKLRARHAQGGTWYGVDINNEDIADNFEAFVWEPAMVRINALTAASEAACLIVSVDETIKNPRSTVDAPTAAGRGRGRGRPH

“IgG control (Millipore Sigma 12-371) (antibody)”: the co-IP mass spectrometry count in the assay with STAU1 (human), in the assay with PGAM5 (human), with PSMB4 (human), in the assay with ATAD3A (human), with SLC25A22 (human) and with HDGFL2 (human) was 0 throughout. In addition, the co-IP mass spectrometry count in the assay with RCN1 (human), with PSMB6 (human), in the assay with RARS (human), with CD70 (human), with NPM1 (human) and with HSPD1 (human) was 0 each time. In addition, the co-IP mass spectrometry count with ZC3HAV1 (human) came out at 0; with CTHRC1 (human) it was 0; with GALNT2 (human), 0; with PJA2 (human) it was 0; with SLC27A4 (human), 0; with RPL26 (human), 5. Further, the co-IP mass spectrometry count in the assay with PSMD4 (human) is 0; with GAPDH (human), 11; with HADHA (human), 0; in the assay with RPS4X (human), 12; with RPL32 (human) it was 0; with GANAB (human), 0. In addition, the co-IP mass spectrometry count with MARS (human), in the assay with SDF4 (human), in the assay with RPL9 (human), in the assay with DNAJB11 (human), with SPRR1A (human) and with MAGT1 (human) was 0 throughout. Besides, the co-IP mass spectrometry count in the assay with RRP12 (human), with CCT2 (human), with TOR1AIP2 (human), in the assay with UGGT1 (human), with CCT7 (human) and with PIGR (human) was 0 each time.

In turn, “N-terminal FLAG tagged B3GNT2 (from UniProt Q9NY97 1-397) (enzyme)” had a co-IP mass spectrometry count (N-term FLAG) in the assay with CASC3 (human) of 3.
